Publication PMC9045261

Biological target: OXAVL02 (OXA-1089)
Assay: SEC-MALS; active SEC fractions dialyzed against PBS (Na2HPO4 10 mM, KH2PO4 1.8 mM, NaCl 137 mM, KCl 2.7 mM, pH 7.4); 100 uL at 0.5 to 1 mg/mL on Superdex 200 Increase 10/300; UV, MALS and refractive index detectors; monomer-dimer equilibrium

OXAVL02 (OXA-1089) (enzyme) was tested, and the stoichiometry N was 2.
